Reference: paper PMC8615163

B1: Milk fat globule-EGF factor 8 (MFG-E8) (natural protein)
chain: LDICSKNPCHNGGLCEEISQEVRGDVFPSYTCTCLKGYAGNHCETKCVEPLGLENGNIANSQIAASSVRVTFLGLQHWVPELARLNRAGMVNAWTPSSNDDNPWIQVNLLRRMWVTGVVTQGASRLASHEYLKAFKVAYSLNGHEFDFIHDVNKKHKEFVGNWNKNAVHVNLFETPVEAQYVRLYPTSCHTACTLRFELLGCELNGCANPLGLKNNSIPDKQITASSSYKTWGLHLFSWNPSYARLDKQGNFNAWVAGSYGNDQWLQVDLGSSKEVTGIITQGARNFGSVQFVASYKVAYSNDSANWTEYQDPRTGSSKIFPGNWDNHSHKKNLFETPILARYVRILPVAWHNRIALRLELLGC

What was measured:
[1] = molecular target: HIS-tagged integrin αvβ5 (ACRO Biosystems IT5-H52W5) (UniProt P06756); assay: radioligand binding; 125I-labeled NP-011 (0–100 μg/mL) incubated in plates coated with HIS-tagged integrin; 50 mM Tris, 5 mM MgCl2, 100 mM NaCl, 1% BSA, pH 7.4; Kd by nonlinear curve fitting (Prism); done by Gifford Bioscience
[2] = molecular target: HIS-tagged integrin αvβ3 (ACRO Biosystems IT3-H52E3) (UniProt P06756); assay: as above
[3] = molecular target: HIS-tagged integrin αvβ5 (ACRO Biosystems IT5-H52W5) (UniProt P06756); assay: radioligand binding; binding affinity assay of MFG-E8 to integrin αVβ5 (Supplementary Figure S2); told with the radioligand binding assays, its own methods not shown

| Molecule | Kd [1] | Kd [2] | Kd [3] |
| --- | --- | --- | --- |
| NP-011 (truncated form of MFG-E8, EGF + C1 domain) (from UniProt Q08431 24-387) (domain or fragment) | 2 nM | 50.4 nM |  |
| B1 |  |  | 25.4 nM |
